Common to all, as to conditions: both partners purified
Assay [1] has as its target T1, Bre1-LR (Bre1 residues 227–700, LBD and RING domains), 6× histidine tag (budding yeast, UniProt Q07457 227-700).
T1 construct: two Bre1 polypeptides form the dimeric coiled-coils of the LBD in the crystal structure; also called WT; source: E. coli BL21 Rosetta (DE3), purified (Ni-NTA, heparin, gel filtration)
T1 sequence (looked up): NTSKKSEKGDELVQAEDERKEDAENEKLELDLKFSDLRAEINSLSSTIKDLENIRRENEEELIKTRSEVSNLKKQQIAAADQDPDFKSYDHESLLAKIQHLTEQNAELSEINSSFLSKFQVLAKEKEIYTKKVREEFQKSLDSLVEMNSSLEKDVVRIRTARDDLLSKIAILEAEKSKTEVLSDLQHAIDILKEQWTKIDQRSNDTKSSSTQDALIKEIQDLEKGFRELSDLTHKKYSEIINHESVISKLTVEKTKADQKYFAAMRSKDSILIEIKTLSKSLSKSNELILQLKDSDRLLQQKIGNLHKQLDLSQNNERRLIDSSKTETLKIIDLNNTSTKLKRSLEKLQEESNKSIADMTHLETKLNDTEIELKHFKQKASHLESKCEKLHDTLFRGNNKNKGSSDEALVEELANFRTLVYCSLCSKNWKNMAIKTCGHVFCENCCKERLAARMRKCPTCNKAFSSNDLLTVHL
Nature of the assay: ITC; Lge1-CT (50–60 μM) injected into Bre1-LR (15 μM); 25°C, 20 mM TRIS (pH 7.5), 300 mM sodium chloride.

The target in another assay is T2, Bre1-LR K379A (budding yeast, UniProt Q07457 227-700, K379A).
T2 construct: source: E. coli BL21 Rosetta (DE3), purified (Ni-NTA, heparin, gel filtration)
T2 sequence (looked up): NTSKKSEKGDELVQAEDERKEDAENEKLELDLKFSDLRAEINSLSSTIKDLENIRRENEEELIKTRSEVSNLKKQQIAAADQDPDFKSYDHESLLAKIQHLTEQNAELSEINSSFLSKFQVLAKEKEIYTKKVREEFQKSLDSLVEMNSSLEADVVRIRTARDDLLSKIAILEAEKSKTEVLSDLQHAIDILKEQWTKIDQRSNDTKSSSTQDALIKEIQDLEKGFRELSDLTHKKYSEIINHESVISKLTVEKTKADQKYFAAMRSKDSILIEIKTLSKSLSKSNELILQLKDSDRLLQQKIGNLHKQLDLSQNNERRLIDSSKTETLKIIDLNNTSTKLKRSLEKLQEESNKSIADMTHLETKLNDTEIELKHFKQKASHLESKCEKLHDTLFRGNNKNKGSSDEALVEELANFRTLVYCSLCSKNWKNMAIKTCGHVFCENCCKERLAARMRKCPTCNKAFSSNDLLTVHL
Put plainly: ITC; Lge1-CT (50–60 μM) injected into Bre1-LR (15 μM); 25°C, 20 mM TRIS (pH 7.5), 200 mM sodium chloride. For orientation: In ITC the heat of successive injections is recorded.

Assay [2] addresses T1, Bre1-LR (Bre1 residues 227–700, LBD and …). The assay is described as above.
The target of a further assay is T3, Bre1-LR A489N (budding yeast, UniProt Q07457 227-700, A489N).
T3 construct: source: E. coli BL21 Rosetta (DE3), purified (Ni-NTA, heparin, gel filtration)
T3 sequence (looked up): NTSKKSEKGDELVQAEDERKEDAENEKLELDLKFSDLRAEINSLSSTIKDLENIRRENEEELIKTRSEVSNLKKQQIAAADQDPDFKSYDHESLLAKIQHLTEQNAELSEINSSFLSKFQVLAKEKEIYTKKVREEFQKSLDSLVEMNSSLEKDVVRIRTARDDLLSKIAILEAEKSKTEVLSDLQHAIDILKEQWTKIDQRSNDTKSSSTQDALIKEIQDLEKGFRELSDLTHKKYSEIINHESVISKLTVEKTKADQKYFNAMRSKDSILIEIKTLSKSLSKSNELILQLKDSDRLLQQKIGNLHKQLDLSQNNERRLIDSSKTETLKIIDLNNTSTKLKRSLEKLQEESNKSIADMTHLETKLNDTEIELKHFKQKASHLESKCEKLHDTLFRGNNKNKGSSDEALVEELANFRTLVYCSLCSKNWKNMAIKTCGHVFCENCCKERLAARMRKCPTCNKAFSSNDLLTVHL
The description is as above.

For another assay, the target named is T4, Bre1-LR V382N (budding yeast, UniProt Q07457 227-700, V382N).
T4 construct: source: E. coli BL21 Rosetta (DE3), purified (Ni-NTA, heparin, gel filtration)
T4 sequence (looked up): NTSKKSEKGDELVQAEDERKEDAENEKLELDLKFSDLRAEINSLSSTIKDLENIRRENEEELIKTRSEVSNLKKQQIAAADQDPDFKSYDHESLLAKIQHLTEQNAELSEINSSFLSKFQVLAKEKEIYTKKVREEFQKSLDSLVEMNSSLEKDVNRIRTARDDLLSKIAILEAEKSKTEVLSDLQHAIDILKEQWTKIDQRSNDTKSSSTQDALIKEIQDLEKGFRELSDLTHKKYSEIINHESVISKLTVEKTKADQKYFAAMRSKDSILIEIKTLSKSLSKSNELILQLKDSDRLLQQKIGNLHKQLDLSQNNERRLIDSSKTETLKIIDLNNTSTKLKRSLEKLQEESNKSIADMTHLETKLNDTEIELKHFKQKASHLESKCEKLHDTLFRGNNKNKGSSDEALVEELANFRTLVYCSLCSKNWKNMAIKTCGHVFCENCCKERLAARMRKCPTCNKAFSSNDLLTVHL
Described as above.

B1: Lge1-CT (Lge1 residues 261–332), intein-chitin binding domain (CBD) tag construct (domain or fragment, budding yeast, UniProt Q02796 261-332, looked up)
chain: KNVKKTNNTESECEKAREVFKESDSIDSALEELNLKINSNELELRLLNNQCDKHALNIQLTQEKLDSLLLMQ
notes: Lge1, budding yeast, residues 261-332; residues 268–331 resolved in the electron density; the intein-CBD tag is named on the protein in the pull-down; also called intein-CBD-fused Lge1-CT; intein-CBD-tagged Lge1-CT; source: E. coli BL21 Rosetta (DE3): cleared cell extract on chitin resin (pull-down); purified (chitin, heparin, gel filtration) for ITC and SPR; co-purified with Bre1-LR for the …
The Kd is the equilibrium constant for the complex coming apart. Read a low Kd as a tighter complex. For orientation: stoichiometry N means the number of molecules, sites or subunits per partner or assembly. Regarding B1, the Kd was found to be 2.7 ± 1.7 nM in assay [1]; 82.3 ± 20 nM with Bre1-LR K379A; 24.5 ± 4.5 nM in assay [2]; 154 ± 55 nM with Bre1-LR A489N; 61.2 ± 14.4 nM with Bre1-LR V382N. Further, the dH is -38.8 ± 0.6 kcal/mol in assay [1]; -44.1 ± 1.8 kcal/mol in the assay with Bre1-LR K379A; -50.5 ± 1 kcal/mol in assay [2]; -52.1 ± 3.6 kcal/mol in the assay with Bre1-LR A489N; -53.1 ± 1.7 kcal/mol with Bre1-LR V382N. Moreover, the “stoichiometry N” value was found to be 0.318 ± 0.002 in assay [1]; 0.415 ± 0.007 with Bre1-LR K379A; 0.396 ± 0.003 in assay [2]; 0.375 ± 0.012 with Bre1-LR A489N; 0.378 ± 0.005 with Bre1-LR V382N.
